From article PMC6134095, “Structural Analysis of the Interaction between the Bacterial Cell Division Proteins FtsQ and FtsB” (mBio, 2018)

B1: FtsB (22–103), periplasmic domain of E. coli FtsB (domain or fragment, UniProt P0A6S5 22-103, looked up)
chain: GKNGIHDYTRVNDDVAAQQATNAKLKARNDQLFAEIDDLNGGQEALEERARNELSMTRPGETFYRLVPDASKRAQSAGQNNR
notes: No tag cleavage is described; source: E. coli C41(DE3), purified (HisTrap, Sephacryl S300); not shown: His6, N-terminal, kept
B2: FtsL (58–121), periplasmic domain of E. coli FtsL (domain or fragment, UniProt P0AEN4 58-121, looked up)
chain: HHTRLLTAQREQLVLERDALDIEWRNLILEENALGDHSRVERIATEKLQMQHVDPSQENIVVQK
notes: FtsL, E. coli, periplasmic domain, residues 58-121; Cloned into pET15b like FtsB; source: E. coli C41(DE3), purified (HisTrap, Sephacryl S300)

Key:
[1] = molecular target: T1, FtsQ (58–276), periplasmic domain of E. coli FtsQ (Escherichia coli strain K-12, UniProt P06136 58-276); test: SPR; FtsQ (58–276) immobilised on a CM5 chip by amide coupling (~1,000 RU); Biacore T200, 20°C; 10 mM HEPES pH 7.4, 150 mM NaCl, 0.4% glycerol; analytes injected 120 s, 600 s dissociation, 1:2 dilution series, triplicate; details: both partners purified
T1 construct: FtsQ, Escherichia coli K-12, periplasmic domain (alpha and beta domains), residues 58-276; construct printed as M-58-276-GSH6; No tag cleavage is described; also called FtsQ (residues 58 to 276); Q: M-58-276-GSH6; source: E. coli C41(DE3), purified (HisTrap, Sephacryl S300); not shown: His6, C-terminal, kept

[2] = molecular target: the molecule itself; test: crystal structure; FtsQ (58–276) with FtsB (22–103), co-purified complex at 6 mg/ml; P4(1)2(1)2, 2.6 Å, molecular replacement; 0.15 M potassium thiocyanate, 20% PEG 550 MME, 0.1 M sodium cacodylate pH 6.5, 19°C
[3] = molecular target: T2, FtsQ (58–276) and FtsB (22–103) added together (Escherichia coli strain K-12 | E. coli, UniProt P06136 58-276; P0A6S5 22-103); test: SPR; FtsL (58–121) immobilised on a CM5 chip by amide coupling (~3,300 RU); Biacore T200, 20°C; 10 mM HEPES pH 7.4, 150 mM NaCl, 0.4% glycerol; FtsQ (58–276) and FtsB (22–103) from 40 µM each, alone or in combination; details: both partners purified
T2 construct: FtsQ, Escherichia coli K-12, periplasmic domain, residues 58-276; as m1; as m2; The two proteins were injected in combination (40 µM each at the start of the dilution series) over immobilised FtsL; also called FtsB and FtsQ; FtsQB complex; source: E. coli C41(DE3), each purified separately (HisTrap, Sephacryl S300), injected in combination
T2 sequence (P06136 58-276, chain 1 of 2, one chain of several): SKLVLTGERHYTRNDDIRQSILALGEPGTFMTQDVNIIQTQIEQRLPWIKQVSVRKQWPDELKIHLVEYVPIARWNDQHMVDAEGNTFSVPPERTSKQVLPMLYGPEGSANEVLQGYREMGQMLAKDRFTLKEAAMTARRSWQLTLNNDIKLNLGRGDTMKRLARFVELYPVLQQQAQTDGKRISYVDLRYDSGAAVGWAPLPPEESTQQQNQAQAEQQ

T1 sequence (P06136 58-276): as the sequence (P06136 58-276, chain 1 of 2, one chain of several) above

| Binder | Kd [1] | binding result [2] | Kd [3] |
| --- | --- | --- | --- |
| B1 | 0.8 µM | binds | – |
| B2 | – | – | 11 µM |
